Measured values as given in publication PMC10513324.
Blank lines part the entries; values can stand above or below the molecule they belong to.

Assays:
[1] = system: GST-Bicc1 WT; assay: GST pull-down, fluorescent RNA; conditions: 100 pmol labeled RNA with 5-10 pmol GST-Bicc1 on glutathione beads, 1 h at 4 C, then HEK293T extract (20 mM Tris-HCl pH 7.4, 2.5 mM MgCl2, 100 mM NaCl, 5% …)
[2] = target: GST-Bicc1 (full-length, WT) (UniProt Q99MQ1); assay: pull-down; full-length GST-Bicc1 (WT or mutD) on glutathione-Sepharose 4B beads, no RNA; HEK293T cell extracts with full-length or truncated ANKS3-Flag; 2 h at 4°C; western blot
Sequence of UniProt Q99MQ1 (Q99MQ1 whole entry, the tested form may be a part): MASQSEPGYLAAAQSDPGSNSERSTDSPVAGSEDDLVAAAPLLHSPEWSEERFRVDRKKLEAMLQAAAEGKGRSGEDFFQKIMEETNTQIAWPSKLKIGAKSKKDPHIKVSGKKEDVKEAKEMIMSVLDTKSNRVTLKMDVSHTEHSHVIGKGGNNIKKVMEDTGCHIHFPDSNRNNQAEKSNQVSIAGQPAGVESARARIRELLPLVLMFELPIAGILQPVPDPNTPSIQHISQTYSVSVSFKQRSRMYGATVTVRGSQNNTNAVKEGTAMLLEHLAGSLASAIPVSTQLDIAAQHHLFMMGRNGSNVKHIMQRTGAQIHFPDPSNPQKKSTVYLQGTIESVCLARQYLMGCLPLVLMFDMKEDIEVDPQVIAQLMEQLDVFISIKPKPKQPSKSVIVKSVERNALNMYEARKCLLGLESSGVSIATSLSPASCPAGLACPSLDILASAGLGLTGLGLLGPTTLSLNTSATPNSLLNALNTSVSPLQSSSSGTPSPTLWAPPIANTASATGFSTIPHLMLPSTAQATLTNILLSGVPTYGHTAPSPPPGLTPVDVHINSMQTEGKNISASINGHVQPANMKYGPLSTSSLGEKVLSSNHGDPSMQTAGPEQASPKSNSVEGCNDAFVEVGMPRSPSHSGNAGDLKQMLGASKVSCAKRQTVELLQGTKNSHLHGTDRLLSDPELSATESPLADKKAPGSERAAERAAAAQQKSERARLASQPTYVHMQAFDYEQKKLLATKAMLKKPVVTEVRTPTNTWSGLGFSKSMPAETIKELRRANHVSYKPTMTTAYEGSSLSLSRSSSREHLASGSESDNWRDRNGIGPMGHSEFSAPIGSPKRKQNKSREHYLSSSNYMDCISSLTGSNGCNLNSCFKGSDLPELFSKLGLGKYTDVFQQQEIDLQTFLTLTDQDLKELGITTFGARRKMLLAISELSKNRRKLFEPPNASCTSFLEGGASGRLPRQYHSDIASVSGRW

[3] = system: GST-Bicc1 mutD; assay: GST pull-down, fluorescent RNA; conditions: after incubation with ANKS3-Flag HEK293T extract; 100 pmol labeled RNA with 5-10 pmol GST-Bicc1 on glutathione beads, 1 h at 4 C; then HEK293T extract (20 mM Tris-HCl pH 7.4, 2.5 mM MgCl2, 100 mM NaCl, 5% …)
[4] = target: GST-Bicc1-KH (complete KH tandem repeat of Bicc1 fused to GST); assay: pull-down; GST fusions of Bicc1 fragments (KH tandem repeat, KH1, KH2, IVS) on glutathione-Sepharose 4B beads; HEK293T cell extracts with ANKS3-Flag (full-length or ΔNter), without v5-ANKS6; 2 h at 4°C; western blot

Molecule: Dand5-3'UTR 226-270 RNA
binding signal (% (relative to 66-110 RNA, inferred)) ([1]; with ANKS3-Flag HEK293T extract): 17.2

Molecule: Dand5-3'UTR 66-110 RNA
binding signal (% (reference)) [1]: 100
binding signal (% of RNA bound by WT GST-Bicc1) [3]: 231

The next lines start with the values.

percent decrease of binding against full-length ANKS3-Flag [2]: 60%
Molecule: ANKS3 ΔSAM-Flag (from UniProt Q6ZW76 1-656) (domain or fragment)

fold change of binding against full-length ANKS3 [4]: 8 fold
B1: ANKS3 ΔNter-Flag (domain or fragment)
chain: MMDTYSPSLPKSLYRSPEKYEDLSSSDESCPAPQRQRPCRKKGVSIHEGPRALARITGIGLGGRAPRPRYEQAPPRGYVTFNSSGENPLEEEGLCCRDVTSPINERDVESSSSSSSREEHAFCANLGPVQSSSSSEGLARAQGLSSEASVESNEDSDHACKSSARKQAKSYMKTKNPDSQWPPRAATDREGFLAESSPQTQRAPYSGPQDLAALLEQIGCLKYLQVFEEQDVDLRIFLTLTESDLKEIGITLFGPKRKMTSAIARWHSSARPPGDALELAYADRLEAEMQELAIQLHKRCEEVEATRGQVCQEQELRAVVESCLLEQDRAREDLQARLRETWALARDAALVLDQLRACQAELSSRVRQDQPPGAATLGLAVPPADSKGWQASLQAMSLPELSGALEDRVREMGQALCLVTQSLEKLQVLNGKKWRET
